This data set is described as follows: soluble on expression in E. coli; label from the status in PepcDB or PDB records.
For the sequence “MDTNFKLSNCIGTVYRDGQVAFSKDGYSVISPIGNKLSIFDLRNNTSKTLDIDCNYNIKRLSISPSGYHLLASDERGVVHFVHLLSEFKIYTFRSNKPIGSLQWSPDATRVAICRENDLQIHEFGKSIENKVYNPFSLSRTYKLSSDSLKTIDWSDDANLLVSGGEDRVVRVVGAKDFKNLFIHPLASHKGYIVNCQFMKNSYDMITVCKRGLANVWTCNLRPGELVEGIWKKDEEGSDDIEMLEDGEQKVEKIFFEKTKKYWLSESSGSGKSVDVTAARFHKETNILATAFNNGVIVLHEIPSFALVHNLRVSEMRIQTVAWNLTGDWLAIGCGKGSTAQLVVWEWQSESYVMKQQAHSLRITTAEYSPDGSLMATGAEDGKVKIWNSRSSFCTVTFDEHTSGVTAVKWTQSGRAILSASLDGTVRAHDLKRYRNFRTLVCPEPTQLATLAVDKAGDLVIAGAKEVFNIYIWSFETGHLLDILSGHESAISSIDIHGNHIVSGSWDRTIKMWTIVDSQAETVEVSHEALDVKFSPAGDEIAVLTSDGVITFFEAKEMINLGSIDTKLDTDPARGSRDTITRQSAAKTKTFTRIRFSPDGNLLLAGGESNNFCLYSVPERMILKKWQITANRSLDGVILDFNRRNFTEFGNMQLVDTSDEEDELEPNNKMSIKLPGTKNFDLGERRARPEVNIYEVTYCPTGRRFAICSTEGVSVYSLDTISMFDPFQLDSQTNAEVIKRAVWNNDYSTAIMASLRLNNAQYITECLESTSISQIPLVASSLPLMYAERLLKWMVEGNVMSSTRHVHFYMIWLRAILQHHGMQLKGRADVATLTGIQQIVAHHQQHITKLANQNKFALNWLVKIRQSKKSVKKEEEEEEDVSDESDDEDIEDESAGSDDEDSDDSVEIIE”, the “soluble on expression in E. coli” value is recorded as “not soluble”. For “GSFTMSYCRQEGKDRIIFVTKEDHETPSSAELVADDPNDPYEEHGLILPNGNINWNCPCLGGMASGPCGEQFKSAFSCFHYSTEEIKGSDCVDQFRAMQECMQKYPDLYPQEDEDEEEEREKKPAEQAEETAPIEATATKEEEGSS”, the “soluble on expression in E. coli” value was “soluble”. For “MLYNLAIVIYDLLVHFAAPFSRKPRKMMKGHWVVYELLRQQVEKGEQYIWFHAASLGEFEQGRPLIEMIREKYPDYKILLTFFSPSGYEVRKHYRGADIVCYLPFDKPRNVKKFLDIANPCMAFFIKYEFWKNYLDELHKRRIPVYSVSSIFRRDQIFFKWYGGTYRNVLKDFDHLFVQNEASKRYLSKIGICRVTVVGDTRFDRVLQIREEAKDLPLVKMFKGDNAFTFVAGSSWGPDEDLFLEYFNTHPEMKLIIAPHVIDENHLVEIISKLKRPYVRYTRADEKNVLKVDCLIIDCFGLLSSIYRYGEVAYIGGGFGVGIHNTLEAAVYGIPVIFGPKYQKFMEAIRLLEAKGAYSIKDYHELKTLLDRFQADDVFMRETGANAGYYVTSNAGATEKIMHMINFLEHHHHHH” the value was “not soluble”; for “MAHHHHHHVGTGSNDDDDKSPDPTQDVREPPALKYGIVLDAGSSHTSMFVYKWPADKENDTGIVGQHSSCDVQGGGISSYANDPSKAGQSLVRCLEQALRDVPRDRHASTPLYLGATAGMRLLNLTSPEATARVLEAVTQTLTQYPFDFRGARILSGQDEGVFGWVTANYLLENFIKYGWVGRWIRPRKGTLGAMDLGGASTQITFETTSPSEDPGNEVHLRLYGQHYRVYTHSFLCYGRDQILLRLLASALQIHRFHPCWPKGYSTQVLLQEVYQSPCTMGQRPRAFNGSAIVSLSGTSNATLCRDLVSRLFNISSCPFSQCSFNGVFQPPVAGNFIAFSAFYYTVDFLTTVMGLPVGTLKQLEEATEITCNQTWTELQARVPGQKTRLADYCAVAMFIHQLLSRGYHFDERSFREVVFQKKAADTAVGWALGYMLNLTNLIPADLPGLRKGTHF”, “soluble”. With “MAHHHHHHMMSTASKILAILREAMRKRSLSALIIPSSDPHNSEYVKDEYKCRAYITNFKGSAGTCLITMNEAYLWTDGRYWLEASQSLYPEWTLMKDGHPDVPRLENWIQLNLGSDVLVGMNNHLSTVAEWERRRKMFNLVSVPEMVQPLMPLVENPVSKLYARPEEFCGMRCGEKAAALMEEMERQKCDALVLSALDEVAWLTNLRGSDVPFNPVFYAYGVVRCCSPPKVHLFVDAVMSEEQGPSLELHPYTALESYLRTIPAGTTFLVDEYQTSQWLFTLLESLGMRIKGVACGPAQKLKAVKNAVEIEGFRRCHVRDGVALTRYLAWLHDTVAVKGDTSVTEYSAAQRLEDFRREGEHFVQLSFSTISSVGPNAAIVHYVAPREGSATIVPDQLYLVDSGAQYLDGTTDVTRTVCFREPGDKEREAYTLVLKGNLALHSAVWPTGTSGHSLDVLARAALWKCGLNYAHGTGHGVGSFLNVHEGPQGIGLRPTPTEATLAAGMVMSNEPGYYKDGEFGIRIENLELVVDVATKHSKKGFLTFDTLTMVPLCRELIDVSALTEAERLQVNAYQQTVRETLLPHLRRCNDSCAIAYLEHHTATL”, the “soluble on expression in E. coli” value is reported as “soluble”. For “MFIDTLIEKIREKDNPSVVGLDPKIEYVPSFIKEDMYKKYGKNLKAVAEAILLFNKYIIDAVYDIVPAVKPQLAYYEMYGLEGMRVFYETCKYAKEKGLLVIADGKRNDIGSTAQCYSAAYLGKTDIDEGISEAVFDVDALTVNPYLGVDGIKPFIDDCVKYNKGIFVLVKTSNKSSGEIQDILTQEGRSIYEIVAEYVESWGENKKGKYGYSCVGAVVGATYPNLAKILRKILKNSYILVPGYGAQGGTARDVAHCFNYDGLGAIVNASRSIMCAYKSEQWKNVYSEEKFYEASRAEAIRMRDDINSALRDRK”, the “soluble on expression in E. coli” value was “not soluble”. In the case of “MKQGKFSVFLILLLMLTLVVAPKGKAEAASSGWQPVSGISGCKIRVITDAYTYTKSATSIDAYAETNGKCGKLNYKSFGVSIVEGGDIGPQYSGYFSSRTPTKKFYFSKLPKPTGTPWAVGLSVYKGKAKGAAFVYINPQKRLEHHHHHH”, the “soluble on expression in E. coli” value is given as “not soluble”. In the case of “MQAGKPILYSYFRSSCSWRVRIALALKGIDYKTVPINLIKDGGQQFSKDFQALNPMKQVPTLKIDGITIHQSLAIIEYLEETRPTPRLLPQDPKKRASVRMISDLIAGGIQPLQNLSVLKQVGEEMQLTWAQNAITCGFNALEQILQSTAGIYCVGDEVTMADLCLVPQVANAERFKVDLTPYPTISSINKRLLVLEAFQVSHPCRQPDTPTELRA”, the “soluble on expression in E. coli” value was “soluble”. The same measure for “SLDKIEHIGIAVKNLEAGNSLYEKLMGVPHYKIEEVASEGVRTSFFKTGPNKIELLEATNDDSAIAKFIEKKGEGIHHIAFAVENIVEEMERLKKEGFIILNEKPKKGADNKLVAFVHPKTAGGVLIELCQEINEG”: “soluble”. In the case of “MTNNDKNKKIVPEVKGTLRSHMIELPEVIRNATGIRVFGKRLKSFVFSTDVAVIRNTNADAVIAVYPFTPQPVITAAIVLAADVPVFCGVGGGLTMGKRVVNLALDAEFKGAMGVVVNSPTPNDIIREVRETIDIPIIVTVVSEYEDVQARIDSGATILNVSGAKRTSHIVRSIREKFPSIPIIATGGNNEASIIETIEAGANAITYTPPTTGKIFGDTMNSYRKKFE”, the “soluble on expression in E. coli” value is “not soluble”. For the sequence “MGSDKIHHHHHHMSRSIVEVYASWMPIDTPLLVGHLTFAETSRGGVFSFTYDKHFLASNYRLQIDPLLALHSGELYNDSADKNFRAFLDSSPDRWGRILMQRRAAIECRKGIRASAKLTELDYLLGVHDSYRMGGIRFKTAASLDFLDNNTEFSAPPMTSLRELEQAAMNIERDDNIDSDDYYRWLKMLISPGSSLGGARPKACVTDSEGHLWIAKFPNQNDTFDVGAWEMVCYQLALAAGIDMFPSEIRKFSTEHHTFLTKRFDRVGGKRIHFSSAMTQLQYYDGEQSDGASYLEIAEFLSNNGAQTKADLAQLWRRIVFNIAVSNTDDHLRNHGFLLSDKGWKLSPAYDLNPIVGKHGLHLNITDTANELDYALAFEVIDFFRLSREDATRIYDDVMGAVKGWQTVASRLGISRNEQLTKQEAFNV”, the “soluble on expression in E. coli” value is “not soluble”. The same measure for “MLLTPAKTTRTEDSANSTDDSSKSSNSFMRAIVSSLMVKPITSLTNTVTCRQSSHHNSSPSKITRYDLIKAAAENDLKRSKSQGREKSRRNSNRRNNEEIFVANTASEIQRTKSSI”: “soluble”. For “MGSDKIHHHHHHLNNQIKIFEGNKIRSIWDNEKEEWYFSVVDVVAVLTESKDPQVYWRVLKKRLKEEGNKTVTNCNALKMKAADGKMRLTDVADMQGIFRIIQSVPSPKAEPFKMWLAEVGKERIDEIIDPELTIDRALETYLKKGYSREWINQRLQAIQVRKELTDTWQDHGVEKGKEYAILTNEITKAWSGMTTREYKDLKGLKKENLRDNMSTLELVLNMLAEATTTELTNATHPQGLEENKKVAKRGGSIAGNARKEIEQETGKSVITSKNAIDFVKLIEDVSSKEFEDKDKKDKD” the value was “not soluble”.
